Laboratory results published in doi:10.1101/2021.12.30.474520.
Where two headings read alike, the source gives them in different places.

Tests used:
[1] = target: human SETD3 (residues 1-497) (human) (UniProt Q86TU7); experiment: ITC
[2] = target: human SETD3 (residues 1-497) (human) (UniProt Q86TU7); experiment: ITC; remark: listed apart in the source

Kd [1] [µM]	Kd [2] [µM]	Substance
48.5	44.4	β-actin peptide, residues 66-81, with 3-pyridylalanine at position 73 (βA-3PyrAla73) (from UniProt P60709 66-81)
4.9	3.1	β-actin peptide, residues 66-81, with 4-pyridylalanine at position 73 (βA-4PyrAla73) (from UniProt P60709 66-81)
39.2	7.2	β-actin peptide, residues 66-81, with ornithine at position 73 (βA-Orn73) (from UniProt P60709 66-81)
4	0.8	β-actin peptide, residues 66-81, with β-triazolylalanine at position 73 (βA-βTriaA73) (from UniProt P60709 66-81)
